According to patent publication US20170247475A1 (Boehringer Ingelheim, published 2017):
Blank lines part the entries; values can stand above or below the binder they belong to.

Assays:
[1] = molecular target: T1, cAng2 (cynomolgus monkey); assay: competition ELISA cAng2/cTie2-Fc; blocked: cTie2-Fc
T1 construct: construct not given; also called cyno Ang2

[2] = molecular target: T2, mAng2; assay: competition ELISA mAng2/mTie2-Fc; blocked: mTie2-Fc
T2 construct: also called mouse Ang2
T2 chain: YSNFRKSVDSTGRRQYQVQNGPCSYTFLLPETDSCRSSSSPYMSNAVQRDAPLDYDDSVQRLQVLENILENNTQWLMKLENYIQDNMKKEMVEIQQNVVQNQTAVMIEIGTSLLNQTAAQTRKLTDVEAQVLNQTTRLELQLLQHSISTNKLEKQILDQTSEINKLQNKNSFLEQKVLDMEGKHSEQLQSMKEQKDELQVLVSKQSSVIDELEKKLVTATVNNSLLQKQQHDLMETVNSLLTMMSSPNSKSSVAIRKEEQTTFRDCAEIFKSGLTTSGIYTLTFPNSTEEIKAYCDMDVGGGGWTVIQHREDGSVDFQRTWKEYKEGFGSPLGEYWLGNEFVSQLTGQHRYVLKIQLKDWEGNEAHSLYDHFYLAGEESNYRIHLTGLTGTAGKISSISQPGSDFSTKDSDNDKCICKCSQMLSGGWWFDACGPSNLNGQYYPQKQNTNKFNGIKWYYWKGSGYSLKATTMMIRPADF

[3] = molecular target: T3, hAng2; assay: competition ELISA hAng2/hTie2-Fc; blocked: hTie2-Fc
T3 construct: also called human Ang2
T3 chain: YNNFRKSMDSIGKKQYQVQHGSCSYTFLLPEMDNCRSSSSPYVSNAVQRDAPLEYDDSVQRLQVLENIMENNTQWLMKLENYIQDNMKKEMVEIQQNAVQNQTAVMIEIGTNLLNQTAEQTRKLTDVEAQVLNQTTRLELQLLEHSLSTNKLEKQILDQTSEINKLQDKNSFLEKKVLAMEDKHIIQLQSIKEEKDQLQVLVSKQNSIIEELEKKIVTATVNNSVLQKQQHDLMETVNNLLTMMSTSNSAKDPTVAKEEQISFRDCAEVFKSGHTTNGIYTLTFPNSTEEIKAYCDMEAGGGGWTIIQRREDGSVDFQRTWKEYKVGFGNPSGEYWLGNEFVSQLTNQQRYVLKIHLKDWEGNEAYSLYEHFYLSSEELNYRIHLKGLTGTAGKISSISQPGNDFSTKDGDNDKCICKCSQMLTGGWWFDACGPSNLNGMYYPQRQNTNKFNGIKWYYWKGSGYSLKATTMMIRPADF

[4] = molecular target: T1, cAng2; assay: competition ELISA cAng2/cTie2-Fc; blocked: cTie2-Fc; remark: listed apart in the source
[5] = molecular target: T2, mAng2; assay: competition ELISA mAng2/mTie2-Fc; blocked: mTie2-Fc
[6] = molecular target: T2, mAng2; assay: as above
[7] = molecular target: T1, cAng2; assay: competition ELISA cAng2/cTie2-Fc; blocked: cTie2-Fc; remark: listed apart in the source
[8] = molecular target: T4, hAng2; assay: competition ELISA, blocking of hAng2 binding to hTie2
T4 construct: also called human Ang2
T4 chain: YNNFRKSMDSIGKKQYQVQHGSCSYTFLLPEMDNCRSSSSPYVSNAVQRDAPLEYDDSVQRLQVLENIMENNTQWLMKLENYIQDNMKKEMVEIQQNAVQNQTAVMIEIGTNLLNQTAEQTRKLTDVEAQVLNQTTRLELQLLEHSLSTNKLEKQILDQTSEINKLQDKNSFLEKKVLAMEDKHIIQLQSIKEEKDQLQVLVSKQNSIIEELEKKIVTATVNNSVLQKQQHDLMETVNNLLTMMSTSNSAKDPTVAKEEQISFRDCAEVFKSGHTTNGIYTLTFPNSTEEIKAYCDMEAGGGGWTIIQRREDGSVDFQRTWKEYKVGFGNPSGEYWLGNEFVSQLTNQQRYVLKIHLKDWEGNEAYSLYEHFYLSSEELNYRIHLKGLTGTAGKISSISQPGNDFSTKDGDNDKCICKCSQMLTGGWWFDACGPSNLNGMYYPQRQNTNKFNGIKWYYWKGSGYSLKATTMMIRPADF

[9] = molecular target: T5, mAng2; assay: competition ELISA, blocking of mAng2 binding to mTie2
T5 construct: also called mouse Ang2
T5 chain: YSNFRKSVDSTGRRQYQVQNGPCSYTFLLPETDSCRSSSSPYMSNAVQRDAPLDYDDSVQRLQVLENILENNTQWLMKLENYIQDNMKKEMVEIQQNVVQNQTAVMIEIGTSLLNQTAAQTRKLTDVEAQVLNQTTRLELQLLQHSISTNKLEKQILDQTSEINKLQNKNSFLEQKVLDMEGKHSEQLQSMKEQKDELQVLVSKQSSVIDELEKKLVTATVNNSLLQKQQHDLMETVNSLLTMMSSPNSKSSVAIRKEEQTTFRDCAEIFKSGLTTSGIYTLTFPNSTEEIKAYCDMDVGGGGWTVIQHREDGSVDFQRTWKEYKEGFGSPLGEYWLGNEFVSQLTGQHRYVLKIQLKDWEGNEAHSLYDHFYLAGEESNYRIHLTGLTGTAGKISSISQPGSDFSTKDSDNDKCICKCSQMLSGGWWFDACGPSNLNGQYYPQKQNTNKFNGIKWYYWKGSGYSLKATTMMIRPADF

[10] = molecular target: T5, mAng2; assay: as above
[11] = molecular target: T6, cAng2 (cynomolgus monkey); assay: competition ELISA, blocking of cAng2 binding to cTie2
T6 construct: also called cyno Ang2

[12] = molecular target: T4, hAng2; assay: competition ELISA, blocking of hAng2 binding to hTie2
[13] = molecular target: T7, recombinant human VEGF165 (human, UniProt P15692-4 27-191); assay: Biacore on VEGF165 (see Example 5.5)
T7 construct: also called hVEGF165; rhVEGF165
T7 sequence (P15692 other isoform, or with tags, fused parts or gaps limits assumed): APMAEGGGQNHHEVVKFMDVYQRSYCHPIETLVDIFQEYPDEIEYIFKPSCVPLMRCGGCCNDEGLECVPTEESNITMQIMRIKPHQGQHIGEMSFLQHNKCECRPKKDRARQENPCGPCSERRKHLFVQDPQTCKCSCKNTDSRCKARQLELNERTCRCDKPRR
Experimental: Samples are injected for 2 min and allowed to dissociate up to 20 min at a flow rate of 45 μI/min. In between sample injections, the chip surface is regenerated with 100 mM HCl. HBS-EP+(Hepes buffer pH7.4+EDTA) is used as running buffer. Binding curves are fitted using a Two State Reaction model by Biacore T100 Evaluation Software v2.0.1.
Affinity of VEGFBII032 is determined by Biacore (see Example 5.5) and the melting temperature is determined in the thermal shift assay as described above.

[14] = molecular target: T7, recombinant human VEGF165; assay: ProteOn, periplasmic extract 1/10 on hVEGF165 chip
Excerpt: One additional variant is constructed in which the potential oxidation site at position M30 (CDR1 region, see FIG. 19 indicated as bold italic residue) is removed by introduction of a M30I mutation.

B1: 1D01 (VHH)
VHH: EVQLVESGGGLVQAGGSLRLSCAASGFTFDDYALGWFRQAAGKEREGVSCIRCSDGSTYYADSVKGRFTISSDNAKNTVYLQMNSLKPEDTAVYYCAASIVPRSKLEPYEYDAWGQGTQVTVSS
- IC50 (read off the curve) [1]: ~10 nM
- IC50 (read off the curve) [2]: ~10 nM
- IC50 (read off the curve) [3]: ~8 nM
- IC50 (read off the curve) [4]: ~10 nM
- IC50 (read off the curve) [5]: ~10 nM
- IC50 (read off the curve) [6]: ~10 nM
- IC50 (read off the curve) [7]: ~10 nM

B2: ANGBII00005 (VHH)
bivalent VHH: EVQLVESGGGLVQAGGSLRLSCAASGFTLDDYAIGWFRQAPGKEREGVSSIRDNDGSTYYADSVKGRFTISSDNDKNTVYLQMNSLKPEDTAVYYCAAVPAGRLRFGEQWYPLYEYDAWGQGTLVTVSSGGGGSGGGGSGGGGSGGGGSGGGGSGGGGSGGGGSGGGGSEVQLVESGGGLVQAGGSLRLSCAASGFTLDDYAIGWFRQAPGKEREGVSSIRDNDGSTYYADSVKGRFTISSDNDKNTVYLQMNSLKPEDTAVYYCAAVPAGRLRFGEQWYPLYEYDAWGQGTLVTVSS
notes: homodimeric anti-Ang2 VHH; also called 00027-40gs-00027
- IC50 (read off the curve) [8]: ~0.01 nM
- IC50 (read off the curve) [9]: ~0.03 nM

B3: 00908 (VHH)
VHH: EVQLVESGGGLVQPGGSLRLSCAASGITLDDYAIGWFRQAPGKEREGVSSIRDNGGSTYYADSVKGRFTISSDNSKNTVYLQMNSLRPEDTAVYYCAAVPAGRLRYGEQWYPIYEYDAWGQGTLVTVSS
notes: also called F009100908
- IC50 (read off the curve) [10]: ~0.1 nM
- IC50 (read off the curve) [11]: ~0.08 nM
- IC50 (read off the curve) [12]: ~0.04 nM

B5: VEGFBII05B05 (VHH)
VHH: EVQLVESGGGLVQPGGSLRLSCVASGIRFMSMAWYRQAPGKHRELVARISSGGTTAYVDSVKGRFTISRDNSKNTVYLQMNSLKAEDTAVYYCNTFSSRPNPWGAGTQVTVSS
notes: also called VEGFBII5B05; VEGFBII5B05(wt)
- Kd [13]: 32 nM
- Binding level (RU) [14]: 242 RU
- koff [14]: 0.0615 s⁻¹

Continued, values first:

- IC50 (read off the curve) [10]: ~0.03 nM
- IC50 (read off the curve) [11]: ~0.03 nM
- IC50 (read off the curve) [12]: ~0.02 nM
B4: ANGBII00006 (VHH)
bivalent VHH: EVQLVESGGGLVQPGGSLRLSCAASGITLDDYAIGWFRQAPGKEREGVSSIRDNGGSTYYADSVKGRFTISSDNSKNTVYLQMNSLRPEDTAVYYCAAVPAGRLRYGEQWYPIYEYDAWGQGTLVTVSSGGGGSGGGSEVQLLESGGGLVQPGGSLRLSCAASGITLDDYAIGWFRQAPGKEREGVSSIRDNGGSTYYADSVKGRFTISSDNSKNTVYLQMNSLRPEDTAVYYCAAVPAGRLRYGEQWYPIYEYDAWGQGTLVTVSS
notes: homodimeric anti-Ang2 VHH; also called 00908-9gs-00908

- Kd [13]: 44 nM
B6: VEGFBII032 (VHH)
VHH: EVQLVESGGGLVQPGGSLRLSCAASGIRFISMAWYRQAPGKQRELVARISSGGTTAYADSVKGRFTISRDNSKNTVYLQMNSLRAEDTAVYYCNTFSSRPNPWGQGTLVTVSS
notes: also called VEGFBII0032
